According to the supplement of paper PMC11246515:
± gives the standard deviation of the averaged measurements.

Assay: total protein half-life in vivo (active degradation + dilution); higher = more stable protein
[1] = E. coli NCM3722 delta-hslV, growth: N-lim chemostat, doubling time 6 h
[2] = wild type E. coli NCM3722, growth: C-lim chemostat, doubling time 3 h
[3] = wild type E. coli NCM3722, growth: N-lim chemostat, doubling time 6 h
[4] = wild type E. coli NCM3722, growth: N-lim chemostat, doubling time 12 h
[5] = wild type E. coli NCM3722, growth: P-lim chemostat, doubling time 6 h
[6] = E. coli NCM3722 delta-clpP delta-lon delta-hslV, growth: N-lim chemostat, doubling time 6 h
[7] = E. coli NCM3722 delta-clpP, growth: N-lim chemostat, doubling time 6 h
[8] = E. coli NCM3722 delta-smpB, growth: N-lim chemostat, doubling time 6 h
[9] = wild type E. coli NCM3722, growth: C-lim chemostat, doubling time 6 h
[10] = wild type E. coli NCM3722, growth: C-lim chemostat, doubling time 12 h
[11] = wild type E. coli NCM3722, growth: P-lim chemostat, doubling time 12 h
[12] = E. coli NCM3722 delta-lon, growth: N-lim chemostat, doubling time 6 h

Sequence	total protein half-life in vivo [1]	total protein half-life in vivo [2]	total protein half-life in vivo [3]	total protein half-life in vivo [4]	total protein half-life in vivo [5]	total protein half-life in vivo [6]	total protein half-life in vivo [7]	total protein half-life in vivo [8]	total protein half-life in vivo [9]	total protein half-life in vivo [10]	total protein half-life in vivo [11]	total protein half-life in vivo [12]
MWLLDQWAERHIAEAQAKGEFDNLAGSGEPLILDDDSHVPPELRAGYRLLKNAGCLPPELEQRREAIQLLDILKGIRHDDPQYQEVSRRLSLLELKLRQAGLSTDFLRGDYADKLLDKINDN	6.32 h	3.06 h	5.56 h	12.3 h	6.15 h	–	–	–	–	–	–	–
MWSEYSLEVVDAVARNGSFSAAAQELHRVPSAVSYTVRQLEEWLAVPLFERRHRDVELTAAGAWFLKEGRSVVKKMQITRQQCQQIANGWRGQLAIAVDNIVRPERTRQMIVDFYRHFDDVELLVFQEVFNGVWDALSDGRVELAIGATRAIPVGGRYAFRDMGMLSWSCVVASHHPLALMDGPFSDDTLRNWPSLVREDTSRTLPKRITWLLDNQKRVVVPDWESSATCISAGLCIGMVPTHFAKPWLNEGKWVALELENPFPDSACCLTWQQNDMSPALTWLLEYLGDSETLNKEWLREPEETPATGD [P0ACR2]	4.85 ± 1.3 h	2.594 ± 0.0057 h	4.8 ± 0.11 h	8.76 ± 0.09 h	5.31 ± 0.39 h	5.69 ± 0.2 h	5.02 ± 0.17 h	4.6 ± 0.3 h	> 8 h	10.5 ± 0.11 h	8.51 ± 0.64 h	–
MWYQKTLTLSAKSRGFHLVTDEILNQLADMPRVNIGLLHLLLQHTSASLTLNENCDPTVRHDMERFFLRTVPDNGNYEHDYEGADDMPSHIKSSMLGTSLVLPVHKGRIQTGTWQGIWLGEHRIHGGSRRIIATLQGE [P0AF48]	4.19 h	2.96 ± 0.08 h	3.98 ± 0.048 h	6.66 ± 0.43 h	5.51 ± 0.073 h	4.54 ± 0.35 h	> 8 h	4.33 ± 0.17 h	4.74 ± 0.15 h	11.9 ± 1.5 h	11.3 ± 0.81 h	4.31 ± 0.8 h
MYERYAGLIFDMDGTILDTEPTHRKAWREVLGHYGLQYDIQAMIALNGSPTWRIAQAIIELNQADLDPHALAREKTEAVRSMLLDSVEPLPLVDVVKSWHGRRPMAVGTGSESAIAEALLAHLGLRHYFDAVVAADHVKHHKPAPDTFLLCAQRMGVQPTQCVVFEDADFGIQAARAAGMDAVDVRLL	–	2.62 ± 0.62 h	–	–	2.46 ± 0.33 h	5.33 ± 0.13 h	–	1.29 h	4.33 ± 0.098 h	6.18 h	7.98 ± 0.48 h	4.41 h
MYIGIDLGTSGVKVILLNEQGEVVAAQTEKLTVSRPHPLWSEQDPEQWWQATDRAMKALGDQHSLQDVKALGIAGQMHGATLLDAQQRVLRPAILWNDGRCAQECTLLEARVPQSRVITGNLMMPGFTAPKLLWVQRHEPEIFRQIDKVLLPKDYLRLRMTGEFASDMSDAAGTMWLDVAKRDWSDVMLQACDLSRDQMPALYEGSEITGALLPEVAKAWGMATVPVVAGGGDNAAGAVGVGMVDANQAMLSLGTSGVYFAVSEGFLSKPESAVHSFCHALPQRWHLMSVMLSAASCLDWAAKLTGLSNVPALIAAAQQADESAEPVWFLPYLSGERTPHNNPQAKGVFFGLTHQHGPNELARAVLEGVGYALADGMDVVHACGIKPQSVTLIGGGARSEYWRQMLADISGQQLDYRTGGDVGPALGAARLAQIAANPEKSLIELLPQLPLEQSHLPDAQRYAAYQPRRETFRRLYQQLLPLMA	5.75 ± 1.6 h	3.52 ± 0.21 h	4.57 ± 0.12 h	8 ± 1.8 h	6.62 ± 0.53 h	5.25 ± 0.23 h	4.96 ± 0.27 h	4.5 ± 0.047 h	5.87 ± 0.13 h	9.67 ± 1.8 h	12.5 ± 0.58 h	4.82 ± 0.32 h
MYKTIIMPVDVFEMELSDKAVRHAEFLAQDDGVIHLLHVLPGSASLSLHRFAADVRRFEEHLQHEAQERLQTMVSHFTIDPSRIKQHVRFGSVRDEVNELAEELGADVVVIGSRNPSISTHLLGSNASSVIRHANLPVLVVR	4.48 h	3.06 ± 0.038 h	3.99 ± 0.43 h	6.48 ± 0.34 h	6.06 ± 0.33 h	–	–	4.18 ± 0.48 h	6.27 h	12 ± 1.8 h	10.7 h	4.71 ± 0.33 h
MYLSKVIIARAWSRDLYQLHQGLWHLFPNRPDAARDFLFHVEKRNTPEGCHVLLQSAQMPVSTAVATVIKTKQVEFQLQVGVPLYFRLRANPIKTILDNQKRLDSKGNIKRCRVPLIKEAEQIAWLQRKLGNAARVEDVHPISERPQYFSGDGKSGKIQTVCFEGVLTINDAPALIDLVQQGIGPAKSMGCGLLSLAPL	–	1.61 h	–	–	–	5.96 ± 0.57 h	–	–	–	–	–	–
MYPVDLHMHTVASTHAYSTLSDYIAQAKQKGIKLFAITDHGPDMEDAPHHWHFINMRIWPRVVDGVGILRGIEANIKNVDGEIDCSGKMFDSLDLIIAGFHEPVFAPHDKATNTQAMIATIASGNVHIISHPGNPKYEIDVKAVAEAAAKHQVALEINNSSFLHSRKGSEDNCREVAAAVRDAGGWVALGSDSHTAFTMGEFEECLKILDAVDFPPERILNVSPRRLLNFLESRGMAPIAEFADL	3.945 ± 0.0077 h	3.11 ± 0.53 h	4.04 ± 0.4 h	6.47 ± 0.46 h	5.73 ± 0.19 h	4.97 ± 0.41 h	4.01 ± 0.17 h	3.925 ± 0.00062 h	4.99 ± 0.23 h	9.55 ± 1.1 h	11.9 ± 0.49 h	4.67 ± 0.18 h
MYQHHNWQGALLDYPVSKVVCVGSNYAKHIKEMGSAVPEEPVLFIKPETALCDLRQPLAIPSDFGSVHHEVELAVLIGATLRQATEEHVRKAIAGYGVALDLTLRDVQGKMKKAGQPWEKAKAFDNSCPLSGFIPAAEFTGDPQNTTLSLSVNGEQRQQGTTADMIHKIVPLIAYMSKFFTLKAGDVVLTGTPDGVGPLQSGDELTVTFDGHSLTTRVL	5.44 ± 0.96 h	3.26 ± 0.39 h	5.18 ± 0.86 h	10.1 ± 0.033 h	5.856 ± 0.052 h	6.01 ± 0.48 h	4.64 ± 0.98 h	4.95 ± 0.3 h	6.22 ± 0.61 h	11.2 ± 0.037 h	12.6 ± 0.54 h	5.67 ± 0.93 h
